The text below walks through data of patent publication US20060035302A1, “Kinase substrates with multiple phosphorylation sites” (Applera Corporation, priority 2004, published 2006).

[ ]: non-standard residue; d: D form. The star is where a group is joined. dye2 = 5-carboxy-2′,7′-dipyridyl-sulfonefluorescein (Dye 2); Undecanoyl = CCCCCCCCCCC(=O)*; code O = not defined here

For data set [1] the following is noted: cited from earlier work.
Another data set addresses protein kinase p38βII (Homo sapiens, UniProt Q15759). The data set is described as follows: Fluorogenic protein kinase assay, real-time fluorescence in 384-well plates. Format: biochemical. As to conditions: substrate 8 μM; 10 and 100 μM ATP; compared with the kinase substrate with one recognition moiety (FIGS. 6A-6B). As to the method: Kinase assays were performed using Coming 384-well, black, non-binding surface (NBS), microwell plates. Fluorescence was read in real time using a […] Gemini XS plate reader, with excitation and emission set at 500 and 550 respectively. The plate was read every minute for one hour at ambient temperature
Concentrations of dye-labeled peptides were determined by dilution of the purified peptides into dimethylformamide (200 μL) with 1 M NaOH (5 μL) and measuring the absorbance of either 5-carboxy-2′,7′-dipyridyl-sulfonefluorescein (i.e. dye2) at its absorbance maximum (548 nm) or 2′,7′,4,7-tetachloro-5-carboxy fluorescein (i.e. 2′,7′-dichloro-5-carboxy-4,7-dichlorofluorescein or “tet”) at its absorbance maximum (541 nm). The extinction coefficient of both dyes was assumed to be 80,000 cm^−1M^−1.
[…] The solution was pipetted into wells of a 384-well plate ([…] per well). Varying concentrations of ATP (final conc 10 and 100 μM) were added to the wells to initiate the kinase reaction. The plate was read at 500 nm excitation, 550 nm emission, each minute for 1 hour. The signal to background ratio for the kinase substrate with two recognition moieties (compound 2) was improved as compared to the signal to background ratio for the kinase substrate with one recognition moiety.

Data set [2] can be described thus: Net charge of substrate from its charged groups. The format is physicochemical. Conditions: pH 7.6; unphosphorylated substrate. From the text: The net charge of the substrate can be established by including an appropriate number of negatively and positively charged groups in the substrate. For example, to establish a net neutral charge (net charge=0), the substrate is designed to contain an equal number of positively and negatively charged groups. […] Aspartate and glutamate contain carboxyl side chains having a single negative charge. A phosphoserine residue carries two negative charges on a phosphate group. […] In addition, the fluorescent moiety may also contain charged groups that should be considered to obtain a particular net charge of the substrate.
This is offset by the guanidinium groups in the two arginine residues, for a total of two positive charges. Thus, the net charge of the compound is about 0 at pH 7.6.

Data set [3] deals with T1, C11OOK(dye 2)RRIPLSPOOK(C11)NH2.
T1 chain: KRRIPLSPK

Data set [4] concerns the target T2, C11-OOK(dye2)RRIPLSPLSPOOK(C11)-amide.
T2 chain: KRRIPLSPLSPK

In the case of `N[C@@H](CS)C(=O)O` [Cysteine (C), Cysteine], in data set [1], the “pK / pKa of side chain” value is “about 8”. Turning to `N[C@@H](Cc1c[nH]cn1)C(=O)O` [Histidine (H), Histidine], in data set [1], the “pK / pKa of side chain” value is “about 7”.

In the case of “C11—OOK(dye2)RRIPLSPLSPOOK(C11)-amide ({Undecanoyl-code O-code O}-K(dye2)RRIPLSPLSP[code O][code O]K(Undecanoyl)-NH2; reading uncertain; also: printed as C11—OOK(dye2)RRIPLSPLSPOOK(C11)-amide) [compound 2, kinase substrate for p38βII; two recognition moieties, two hydrophobic moieties, Dye2]”, the “signal to background ratio” value in the data set with protein kinase p38βII is “improved signal to background ratio”. Besides, the net charge result in data set [2] is reported as “about 0”.

B1: protein kinase p38βII (protein)
chain: MSGPRAGFYRQELNKTVWEVPQRLQGLRPVGSGAYGSVCSAYDARLRQKVAVKKLSRPFQSLIHARRTYRELRLLKHLKHENVIGLLDVFTPATSIEDFSEVYLVTTLMGADLNNIVKCQALSDEHVQFLVYQLLRGLKYIHSAGIIHRDLKPSNVAVNEDCELRILDFGLARQADEEMTGYVATRWYRAPEIMLNWMHYNQTVDIWSVGCIMAELLQGKALFPGSDYIDQLKRIMEVVGTPSPEVLAKISSEHARTYIQSLPPMPQKDLSSIFRGANPLAIDLLGRMLVLDSDQRVSAAEALAHAYFSQYHDPEDEPEAEPYDESVEAKERTLEEWKELTYQEVLSFKPPEPPKPPGSLEIEQ
In the case of B1, in data set [3], the “rate of reaction / signal to background ratio (fluorescence kinase assay, 10 and 100 µM ATP)” value is recorded as “comprising two protein kinase recognition moieties has an improved signal to background ratio as compared to the kinase substrate comprising one protein kinase recognition moiety, C11OOK(dye 2)RRIPLSPOOK(C11)NH2”. For the same molecule, in data set [4], the “signal to background ratio (fluorescence kinase assay, 10 and 100 µM ATP)” value is on record as “The signal to background ratio for the kinase substrate with two recognition moieties (compound 2) was improved as compared to the signal to background ratio for the kinase substrate with one recognition moiety”; the “signal to background ratio, fold improvement over the substrate with one recognition moiety” value was “improved the signal to background ratio 3 to 5 fold”.
